In article PMC3386216 (Molecular Biology of the Cell, 2012):

T1: GST-Sac1 (amino acids 2–521) (S. cerevisiae, UniProt P32368 2-521)
T1 sequence: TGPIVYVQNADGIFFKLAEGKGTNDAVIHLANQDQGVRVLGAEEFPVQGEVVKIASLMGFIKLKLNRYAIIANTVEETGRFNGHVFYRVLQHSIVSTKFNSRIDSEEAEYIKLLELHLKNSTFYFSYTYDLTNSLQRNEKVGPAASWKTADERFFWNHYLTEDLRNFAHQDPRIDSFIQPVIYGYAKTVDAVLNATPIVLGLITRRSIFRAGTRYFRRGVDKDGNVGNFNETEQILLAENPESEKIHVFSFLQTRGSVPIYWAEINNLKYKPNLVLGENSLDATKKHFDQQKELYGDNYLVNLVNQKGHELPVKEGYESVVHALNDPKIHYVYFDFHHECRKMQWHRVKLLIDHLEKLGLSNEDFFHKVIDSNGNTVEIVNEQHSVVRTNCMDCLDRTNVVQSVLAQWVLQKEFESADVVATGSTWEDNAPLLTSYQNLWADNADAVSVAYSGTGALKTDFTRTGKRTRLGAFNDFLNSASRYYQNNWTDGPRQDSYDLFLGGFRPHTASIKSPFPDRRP

B1: His- and T7-tagged Vps74 (natural protein)
chain: MSTLQRRRVNRADSGDTSSIHSSANNTKGDKIANIAVDGDDDNGTNKKIAYDPEESKLRDNINIPTLTLMEEVLLMGLRDREGYLSFWNDSISYALRGCIIIELALRGKIRILDDSARKRFDLSERLIEVIDSSKTGEVLLDETLQLMKNDEPLSISNWIDLLSGETWNLLKINYQLKQVRERLAKGLVDKGVLRTEMKNFFLFDMATHPIADASCKEAIKRRVLSVLVSRNMELSYNEYFPETTSFKIIRTLALICGSYGANVLENVLTTLEYEKRDKAISRAEEIMAQFSQYPFDLEKETELGVSVNLNKEVKEEIENNPGHDLQLEVIAGVFEVFSRMDMLL
B2: Vps74ΔN59 (domain or fragment)
chain: DNINIPTLTLMEEVLLMGLRDREGYLSFWNDSISYALRGCIIIELALRGKIRILDDSARKRFDLSERLIEVIDSSKTGEVLLDETLQLMKNDEPLSISNWIDLLSGETWNLLKINYQLKQVRERLAKGLVDKGVLRTEMKNFFLFDMATHPIADASCKEAIKRRVLSVLVSRNMELSYNEYFPETTSFKIIRTLALICGSYGANVLENVLTTLEYEKRDKAISRAEEIMAQFSQYPFDLEKETELGVSVNLNKEVKEEIENNPGHDLQLEVIAGVFEVFSRMDMLL

Legend:
[1] = target: Sac1 (amino acids 2–521) (untagged recombinant, SPR) (S. cerevisiae) (UniProt P32368); experiment: SPR
[2] = target: T1, GST-Sac1 (amino acids 2–521); experiment: pull-down

Binder	Kd [1]	binding result [2]
B1	3.8 µM	binds
B2	4.2 µM	
